In article PMC6508567:

Legend:
[1] = molecular target: chymotrypsin
[2] = molecular target: β-amylase WT (barley (Hordeum vulgare) cv. Harrington) (UniProt P16098)
[3] = molecular target: β-amylase WT (barley (Hordeum vulgare) cv. Harrington) (UniProt P16098); assay: SPR; β-amylase immobilised by amine coupling on a CM5 chip, serpin Z4 injected at 0.6, 0.5, 0.4, 0.3 and 0.2 μM; PBS; Biacore T200
[4] = molecular target: β-amylase WT (barley (Hordeum vulgare) cv. Harrington) (UniProt P16098); remark: listed apart in the source
[5] = molecular target: β-amylase WT (barley (Hordeum vulgare) cv. Harrington) (UniProt P16098); assay: MST; β-amylase labelled with an NHS-ester fluorescent dye (70 nM), unlabelled serpin Z4 from 40 μM to 1 nM; PBS with 0.1% Tween-20; Monolith NT.115; three replicates combined
[6] = molecular target: β-amylase WT (barley (Hordeum vulgare) cv. Harrington) (UniProt P16098); remark: listed apart in the source

inhibition factor X inh from the residual peptidase activity of chymotrypsin on casein, serpin:protease 2:1 [1] | β-amylase activity (DNSA) over 37-62°C with serpin Z4 at 1:5; at 50°C against β-amylase alone at optimal temperatures [2] | Kd [3] | Vmax of β-amylase with serpin Z4 at a 1:5 molar ratio (Lineweaver-Burk), with or without DTT [4] | Kd [5] | EC50 of serpin Z4 for the enhancement of β-amylase activity, Betamyl-3 method [6] | EC50 of serpin Z4 for the enhancement of β-amylase activity, DNSA method [6] | Binder
0.88 | – | – | – | – | – | – | serpin BsZx (natural protein) MATTDIRLSIAHQTRFAVRLASAISSPSHAKGSSGNAAFSPLSLHVALSLVAAGAAATRDQLAATLGAAEKGDAEGLHALAEQVVQVVLADASGAGGPRSFANVFVDSSLKLKPSFKDLVVGKYKGETQSVDFQTKAPEVAGQVNSWVEKITTGLIKEILPAGSVDSTTRLVLGNALYFKGSWTEKFDASKTKDEKFHLLDGSSVQTPFMSSTKKQYISSYDSLKVLKLPYQQGGDKRQFSMYILLPEAQDGLWNLANKLSTEPEFMEKHMPMQKVPVGQFKLPKFKISFGFEASDMLKGLGLQLPFSSEADLSEMVDSPAARSLYVSSVFHKSFVEVNEEGTEAAARTARVVTLRSLPVEPVKVDFVADHPFLFLIREDLTGVVLFVGHVFNPLVSA
– | 60% | 142 nM | 2 fold | 200 nM | 180 nM | 300 nM | serpin Z4 (natural protein) MATTLATDVRLSIAHQTRFALRLRSAISSNPERAAGNVAFSPLSLHVALSLITAGAAATRDQLVAILGDGGAGDAKELNALAEQVVQFVLANESSTGGPRIAFANGIFVDASLSLKPSFEELAVCQYKAKTQSVDFQHKTLEAVGQVNSWVEQVTTGLIKQILPPGSVDNTTKLILGNALYFKGAWDQKFDESNTKCDSFHLLDGSSIQTQFMSSTKKQYISSSDNLKVLKLPYAKGHDKRQFSMYILLPGAQDGLWSLAKRLSTEPEFIENHIPKQTVEVGRFQLPKFKISYQFEASSLLRALGLQLPFSEEADLSEMVDSSQGLEISHVFHKSFVEVNEEGTEAGAATVAMGVAMSMPLKVDLVDFVANHPFLFLIREDIAGVVVFVGHVTNPLISA
